Reference: US20240117334A1, “FACTOR B PROTEASES” (Vertex Pharmaceuticals Incorporated, priority 2021, published 2024)
Residue numbers refer to the chain shown, from its start. Names and notes keep the numbering of the source.

B1: chymase C22S/D175N/A226R (enzyme)
chain: IIGGTESKPHSRPYMAYLEIVTSNGPSKFCGGFLIRRNFVLTAAHCAGRSITVTLGAHNITEEEDTWQKLEVIKQFRHPKYNTSTLHHDIMLLKLKEKASLTLAVGTLPFPSQFNFVPPGRMCRVAGWGRTGVLKPGSDTLQEVKLRLMDPQACSHFRNFDHNLQLCVGNPRKTKSAFKGDSGGPLLCAGVAQGIVSYGRSDAKPPRVFTRISHYRPWINQILQAN
B2: chymase C22S/P38Q/K40A/F41K/L99H/V138I/D175S/A190S/V213A/S218V/A226R (enzyme)
chain: B1 chain with P26Q, K28A, F29K, L86H, V125I, N159S, A177S, V196A, S201V
B3: chymase C22S/P38Q/K40M/F41R/L99Q/V138I/F173Y/D175A/A190S/V213A/S218T/A226R (enzyme)
chain: B1 chain with P26Q, K28M, F29R, L86Q, V125I, F157Y, N159A, A177S, V196A, S201T
B4: chymase C22S/P38Q/K40M/F41R/D175N/V213Q/S218V/A226R/F228A (enzyme)
chain: B1 chain with P26Q, K28M, F29R, V196Q, S201V, F209A
B5: chymase C22S/V138A/G145D/S189T/A190S/A226R (enzyme)
chain: B1 chain with V125A, G132D, N159D, S176T, A177S
B6: chymase C22S/K40L/L99N/F173Y/D175N/S218L/A226R (enzyme)
chain: B1 chain with K28L, L86N, F157Y, S201L
B7: chymase C22S/P38Q/K40A/F41R/V138I/F173S/D175T/A190S/V213A/S218V/A226R (enzyme)
chain: B1 chain with P26Q, K28A, F29R, V125I, F157S, N159T, A177S, V196A, S201V
B8: chymase C22S/P38Q/K40L/F41R/V138I/F173L/D175H/A190S/V213A/S218V/A226R (enzyme)
chain: B1 chain with P26Q, K28L, F29R, V125I, F157L, N159H, A177S, V196A, S201V
B9: chymase C22S/P38Q/K40M/F41R/L99Y/V138I/F173Y/D175S/A190S/V213A/S218V/A226R (enzyme)
chain: B1 chain with P26Q, K28M, F29R, L86Y, V125I, F157Y, N159S, A177S, V196A, S201V
B10: chymase C22S/P38Q/K40L/F41R/V138I/F173M/D175N/A190S/V213A/S218L/A226R (enzyme)
chain: B1 chain with P26Q, K28L, F29R, V125I, F157M, A177S, V196A, S201L
B11: chymase C22S/P38Q/K40L/F41R/L99N/V138I/F173Y/D175N/A190S/V213A/S218V/A226R (enzyme)
chain: B1 chain with P26Q, K28L, F29R, L86N, V125I, F157Y, A177S, V196A, S201V
B12: chymase C22S/K40L/F41K/L99H/F173Y/D175S/S218I/A226R (enzyme)
chain: B1 chain with K28L, F29K, L86H, F157Y, N159S, S201I
B13: chymase C22S/P38Q/K40M/F41R/V138I/F173Y/D175R/A190S/V213A/S218V/A226R (enzyme)
chain: B1 chain with P26Q, K28M, F29R, V125I, F157Y, N159R, A177S, V196A, S201V
B14: chymase C22S/S189T/A226R/F228M (enzyme)
chain: B1 chain with N159D, S176T, F209M
B15: chymase C22S/P38Q/K40M/F41R/L99Y/V138I/F173L/D175S/A190S/V213A/S218V/A226R (enzyme)
chain: B1 chain with P26Q, K28M, F29R, L86Y, V125I, F157L, N159S, A177S, V196A, S201V
B16: chymase C22S/K40L/F41K/L99Q/F173Y/D175N/S218V/A226R (enzyme)
chain: B1 chain with K28L, F29K, L86Q, F157Y, S201V
B17: chymase C22S/P38Q/K40A/F41R/L99H/V138I/F173Y/D175N/A190S/V213A/S218V/A226R (enzyme)
chain: B1 chain with P26Q, K28A, F29R, L86H, V125I, F157Y, A177S, V196A, S201V
B18: chymase C22S/P38Q/K40M/F41R/L99N/V138I/F173Y/D175T/A190S/V213A/S218V/A226R (enzyme)
chain: B1 chain with P26Q, K28M, F29R, L86N, V125I, F157Y, N159T, A177S, V196A, S201V
B19: chymase C22S/V138L/S189T/A190G/A226R (enzyme)
chain: B1 chain with V125L, N159D, S176T, A177G
B20: chymase C22S/P38Q/K40A/F41R/V138I/D175R/A190S/V213A/S218T/A226R (enzyme)
chain: B1 chain with P26Q, K28A, F29R, V125I, N159R, A177S, V196A, S201T
B21: chymase C22S/F41K/L99N/F173Y/D175N/S218L/A226R (enzyme)
chain: B1 chain with F29K, L86N, F157Y, S201L
B22: chymase C22S/P38Q/V138I/A226R/F228A (enzyme)
chain: B1 chain with P26Q, V125I, N159D, F209A
B23: chymase C22S/P38Q/K40L/F41R/V138I/F173Y/D175N/A190S/V213A/S218V/A226R (enzyme)
chain: B1 chain with P26Q, K28L, F29R, V125I, F157Y, A177S, V196A, S201V
B24: chymase C22S/V138A/S189T/A226R (enzyme)
chain: B1 chain with V125A, N159D, S176T
B25: chymase C22S/K40M/F41K/L99N/F173Y/D175R/S218T/A226R (enzyme)
chain: B1 chain with K28M, F29K, L86N, F157Y, N159R, S201T
B26: chymase C22S/K40M/F41R/L99Q/F173Y/D175R/S218I/A226R (enzyme)
chain: B1 chain with K28M, F29R, L86Q, F157Y, N159R, S201I
B27: chymase C22S/K40L/F41R/L99G/F173Y/D175R/S218V/A226R (enzyme)
chain: B1 chain with K28L, F29R, L86G, F157Y, N159R, S201V
B28: chymase C22S/P38Q/K40A/F41R/L99H/V138I/F173Y/A190S/V213A/S218V/A226R (enzyme)
chain: B1 chain with P26Q, K28A, F29R, L86H, V125I, F157Y, N159D, A177S, V196A, S201V
B29: chymase C22S/P38Q/V138I/A190S/V213A/A226R (enzyme)
chain: B1 chain with P26Q, V125I, N159D, A177S, V196A

Target: Human Factor B (human) (UniProt P00751)
Sequence (P00751 26-764 limits assumed): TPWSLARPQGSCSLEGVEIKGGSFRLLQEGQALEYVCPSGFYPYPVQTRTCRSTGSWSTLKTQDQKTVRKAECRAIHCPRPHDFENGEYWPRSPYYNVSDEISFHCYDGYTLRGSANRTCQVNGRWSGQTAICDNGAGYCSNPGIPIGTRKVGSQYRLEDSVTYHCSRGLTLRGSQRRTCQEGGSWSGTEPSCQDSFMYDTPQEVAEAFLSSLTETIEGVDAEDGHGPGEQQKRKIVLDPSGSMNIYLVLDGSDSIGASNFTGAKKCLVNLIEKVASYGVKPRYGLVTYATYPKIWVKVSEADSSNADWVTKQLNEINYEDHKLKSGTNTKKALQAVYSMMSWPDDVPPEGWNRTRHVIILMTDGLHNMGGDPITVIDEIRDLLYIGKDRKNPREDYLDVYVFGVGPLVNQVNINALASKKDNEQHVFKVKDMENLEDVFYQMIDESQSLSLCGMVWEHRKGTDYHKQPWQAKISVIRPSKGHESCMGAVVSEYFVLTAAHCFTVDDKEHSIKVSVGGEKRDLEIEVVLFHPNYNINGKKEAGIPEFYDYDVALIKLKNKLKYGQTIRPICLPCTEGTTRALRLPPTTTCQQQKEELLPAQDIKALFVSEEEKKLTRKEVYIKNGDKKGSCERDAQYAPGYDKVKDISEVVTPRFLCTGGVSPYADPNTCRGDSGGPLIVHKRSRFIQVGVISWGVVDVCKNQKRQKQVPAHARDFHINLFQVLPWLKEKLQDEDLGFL
Experiment: cell-based or functional assay

Row | Binder | fB Cleavage EC50 | fB Cleavage, 80% plasma EC50 | EC50 (Factor B ELISA after digestion)
1 | B1 | 564 nM | 7770 nM | –
2 | B2 | 142 nM | – | –
3 | B3 | 724 nM | – | –
4 | B4 | 932 nM | – | –
5 | B5 | 3810 nM | – | –
6 | B6 | 113 nM | – | –
7 | B7 | 1720 nM | – | –
8 | B8 | 314 nM | – | –
9 | B9 | 103 nM | – | –
10 | B10 | 456 nM | – | –
11 | B11 | 65.3 nM | – | –
12 | B12 | 101 nM | 4620 nM | –
13 | B13 | 28.1 nM | – | 30.2 nM
14 | B14 | 1550 nM | – | –
15 | B15 | 814 nM | – | –
16 | B16 | 110 nM | 5670 nM | –
17 | B17 | 71.8 nM | – | –
18 | B18 | 92.1 nM | – | –
19 | B19 | 4160 nM | – | –
20 | B20 | 262 nM | – | –
21 | B21 | 77 nM | – | –
22 | B22 | 12400 nM | – | –
23 | B23 | 36.3 nM | – | 42.5 nM
24 | B24 | 4420 nM | – | –
25 | B25 | 216 nM | 4130 nM | –
26 | B26 | 213 nM | 4480 nM | –
27 | B27 | 333 nM | 8620 nM | –
28 | B28 | 406 nM | – | –
29 | B29 | 1350 nM | – | –
